± gives the standard error. Variants at the floor of the assay were thinned out.
B1: glmS ribozyme (parent)
chain: AUAAAAGCGCCAGAACUACAGAAAUGUAGUUGACGAGGAGGAGGUUUAUCGAAUUUUCGGCGGAUGCCUCCAAA

Variants of: B1
Experiment: self-cleavage kobs at 640 uM GlcN6P; higher = faster cleavage; RNA array
Details: with glucosamine-6-phosphate
Procedure, shortened: (§1)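 Glucosamine-6-phosphate, from 40 μM to 10 mM in HEPES/KCl/Mg(OAc)2 buffer, was flowed over sequenced MiSeq chips carrying barcoded ribozyme variants transcribed in situ by E. coli RNA polymerase. A hybridised Cy3 probe tracked the variants at 37 °C as tiles were imaged over ~14 h. kobs, kcat and KM were obtained by fitting normalised per-tile medians to exponential decays and then applying weighted Michaelis–Menten fits across concentrations.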

Row | Variant | self-cleavage kobs at 640 uM GlcN6P
1 | C50G C58U C61U | 0.000479 ± 0.00011 s⁻¹
2 | G51C A64C | < 1e-05 s⁻¹
3 | G51A G62C G63C | < 1e-05 s⁻¹
4 | U47A C61A C67G C71A | < 1e-05 s⁻¹
5 | C58U G62A C68G | 6.69e-05 ± 2.4e-05 s⁻¹
6 | G51C G63U | < 1e-05 s⁻¹
7 | C58U U69A | 6.22e-05 ± 2.6e-05 s⁻¹
8 | U46G G51U U56G U69G | 0.000445 ± 0.00011 s⁻¹
9 | G59C A64G U69G | < 1e-05 s⁻¹
10 | U49C C50U G51A | < 1e-05 s⁻¹
11 | U55C C61G G62C | < 1e-05 s⁻¹
12 | C50G C61A C67U | 0.000392 ± 0.0001 s⁻¹
13 | C50G A53U A64G | < 1e-05 s⁻¹
14 | U46G U57C | < 1e-05 s⁻¹
15 | U55A U57G | 2.18e-05 ± 1e-05 s⁻¹
16 | U54G U55C U56G G59C U69G | 0.000119 ± 4.3e-05 s⁻¹
17 | U57G G62C C68U C70G | 4.22e-05 ± 2e-05 s⁻¹
18 | G51U C67U U69C | 5.75e-05 ± 2.5e-05 s⁻¹
19 | U65G U69C C71U | 6.22e-05 ± 1.6e-05 s⁻¹
20 | G51A G66A U69A | 0.000177 ± 7.9e-05 s⁻¹
21 | U47A A48U C58G | < 1e-05 s⁻¹

Row | Variant | self-cleavage kobs at 640 uM GlcN6P
22 | U47G G51U | < 1e-05 s⁻¹
23 | U49C U54A G63U | < 1e-05 s⁻¹
24 | C58G U65C | < 1e-05 s⁻¹
25 | U56A C58G G59A G60A | < 1e-05 s⁻¹
26 | A52C U54G | < 1e-05 s⁻¹
27 | U49G C50U G66U C70U | 8.76e-05 ± 3.9e-05 s⁻¹
28 | U54A G66A C71U | 0.00501 ± 0.00099 s⁻¹
29 | U55G G63U | < 1e-05 s⁻¹
30 | U49A C50G | < 1e-05 s⁻¹
31 | A48U C58A C61G | < 1e-05 s⁻¹
32 | G51U A52G G59A | < 1e-05 s⁻¹
33 | A53G U54G U55G C61A C70U | 0.000595 ± 0.00019 s⁻¹
34 | U46C G59C | < 1e-05 s⁻¹
35 | G62U G63U G66C | < 1e-05 s⁻¹
36 | C58G G62A G63C C71A | 5.92e-05 ± 2.4e-05 s⁻¹
37 | C50A U54C U57C C70A | < 1e-05 s⁻¹
38 | U57A C71U | 5.18e-05 ± 2.1e-05 s⁻¹
39 | A48G U55C G59C | < 1e-05 s⁻¹
40 | G63C U69G | 5.78e-05 ± 2.2e-05 s⁻¹
41 | A53U U56A C71U | 0.00121 ± 0.00015 s⁻¹
42 | C58U C61G C67U | 7.86e-05 ± 3.1e-05 s⁻¹

Row | Variant | self-cleavage kobs at 640 uM GlcN6P
43 | U54A C67U C68A | 6.98e-05 ± 2.2e-05 s⁻¹
44 | U65G G66C | 0.000223 ± 4.9e-05 s⁻¹
45 | U46C G51C C70U | < 1e-05 s⁻¹
46 | U47C G59U | < 1e-05 s⁻¹
47 | U65G A72C | 0.000308 ± 7.4e-05 s⁻¹
48 | U49G G62C | < 1e-05 s⁻¹
49 | C61U C67G | < 1e-05 s⁻¹
50 | U55C C58A C70U | 4.34e-05 ± 1.9e-05 s⁻¹
51 | U57G C67A U69G | 4.87e-05 ± 2.3e-05 s⁻¹
52 | U46G C50U C67U C68A U69G | 0.00024 ± 9.9e-05 s⁻¹
53 | U69C C70G | 4.82e-05 ± 1.6e-05 s⁻¹
54 | U57C G62C C68G | < 1e-05 s⁻¹
55 | U56C C61U C71G | < 1e-05 s⁻¹
56 | U47G U55A C68G C71G | 0.000142 ± 4.5e-05 s⁻¹
57 | A52U A53C C71G | < 1e-05 s⁻¹
58 | U49C A52G U65C | < 1e-05 s⁻¹
59 | U47G A52U C68G | 0.000113 ± 4.9e-05 s⁻¹
60 | U47A G66C | 0.000329 ± 7.2e-05 s⁻¹
61 | G60C C70A | < 1e-05 s⁻¹
62 | U47G U49A A52U | < 1e-05 s⁻¹

Variants of: B1
Experiment: self-cleavage kobs at 10000 uM GlcN6P; higher = faster cleavage; RNA array
Details: with glucosamine-6-phosphate
Procedure, shortened: as §1

Row | Variant | self-cleavage kobs at 10000 uM GlcN6P
63 | G51C A64C | < 1e-05 s⁻¹
64 | G51C G63U | < 1e-05 s⁻¹
65 | U55A U57G | 7.86e-05 ± 1.2e-05 s⁻¹
66 | A6C G37C | < 1e-05 s⁻¹
67 | U57A C71U | 0.000407 ± 0.00015 s⁻¹
68 | U65G G66C | 0.00137 ± 0.00016 s⁻¹
69 | U46G C50U C67U C68A U69G | 4.36e-05 ± 1.5e-05 s⁻¹
70 | U47G U55A C68G C71G | 4.14e-05 ± 1.5e-05 s⁻¹
71 | G60C C70A | < 1e-05 s⁻¹

Variants of: B1
Experiment: self-cleavage kobs at 2500 uM GlcN6P; higher = faster cleavage; RNA array
Details: with glucosamine-6-phosphate
Procedure, shortened: as §1

Row | Variant | self-cleavage kobs at 2500 uM GlcN6P
72 | U47A C61A C67G C71A | < 1e-05 s⁻¹
73 | U49C C50U G51A | < 1e-05 s⁻¹
74 | A6C A39G G51C | < 1e-05 s⁻¹
75 | C50G C61A C67U | 5.47e-05 ± 2.1e-05 s⁻¹
76 | U55A U57G | 2.56e-05 ± 7.4e-06 s⁻¹
77 | U54G U55C U56G G59C U69G | 6.83e-05 ± 2.7e-05 s⁻¹
78 | A6C C34U C50G | 0.000502 ± 0.00022 s⁻¹
79 | A6C A12G U55C C70A | < 1e-05 s⁻¹
80 | A6C G37C | < 1e-05 s⁻¹
81 | U65G U69C C71U | 6.97e-05 ± 2.6e-05 s⁻¹
82 | U47A A48U C58G | < 1e-05 s⁻¹
83 | U49C U54A G63U | < 1e-05 s⁻¹
84 | C58G U65C | < 1e-05 s⁻¹
85 | A6C G13A A39C C67U C70G | < 1e-05 s⁻¹
86 | U56A C58G G59A G60A | < 1e-05 s⁻¹
87 | A6C C10U G37U C50G U54C C70A | 0.000151 ± 3.4e-05 s⁻¹

Row | Variant | self-cleavage kobs at 2500 uM GlcN6P
88 | U55G G63U | < 1e-05 s⁻¹
89 | G51U A52G G59A | < 1e-05 s⁻¹
90 | A53G U54G U55G C61A C70U | 7.21e-05 ± 2.5e-05 s⁻¹
91 | G62U G63U G66C | < 1e-05 s⁻¹
92 | U57A C71U | 0.000132 ± 3.1e-05 s⁻¹
93 | A48G U55C G59C | < 1e-05 s⁻¹
94 | A53U U56A C71U | 0.00323 ± 0.00064 s⁻¹
95 | A6C C11G U49G U65C C68G | < 1e-05 s⁻¹
96 | A6C C16G U45G G59U | < 1e-05 s⁻¹
97 | U46C G51C C70U | < 1e-05 s⁻¹
98 | A6C A15U G43A C71U | < 1e-05 s⁻¹
99 | U55C C58A C70U | 5.54e-05 ± 1.5e-05 s⁻¹
100 | A6C A33U G37C A42U A48C U56A G59U C68G | < 1e-05 s⁻¹
101 | A52U A53C C71G | < 1e-05 s⁻¹
102 | U47A G66C | 0.000448 ± 0.00013 s⁻¹

Reference: the supplement of paper PMC7125110
